Assay results taken from patent US12319742 (SHATTUCK LABS, dated 2025).

Assays:
[1] = target: T1, biotinylated recombinant human TNFRSF25-His tagged (Acro #TN5-H52H3) (human, UniProt Q93038 25-199, biotinylated); experiment: BLI/Octet Red 96e; biotinylated TNFRSF25-His on streptavidin biosensor; 600 s association, 600 s dissociation
T1 construct: treated as the same protein; also called recombinant biotin-conjugated human TNFRSF25 protein; DR3
T1 sequence (looked up): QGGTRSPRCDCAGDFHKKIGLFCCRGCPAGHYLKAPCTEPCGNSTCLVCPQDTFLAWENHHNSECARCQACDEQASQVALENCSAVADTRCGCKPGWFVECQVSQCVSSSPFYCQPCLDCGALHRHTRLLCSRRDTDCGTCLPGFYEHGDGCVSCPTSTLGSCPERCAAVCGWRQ
Description: Figure 4: FIG. 4. TNFRSF25 binding affinity of anti-TNFRSF25 antibodies. BLI assay was performed using the Octet Red 96e instrument. Streptavidin biosensors were loaded with biotinylated recombinant human TNFRSF25-His tagged (Acro #TN5-H52H3) as the ligand. During the association phase, biosensors were incubated with anti-TNFRSF25 antibodies at various concentrations for 600 seconds, followed by a 600-second dissociation phase.
(§1) To detect binding of certain whole antibodies to human TNFRSF25, streptavidin biosensors were loaded with biotinylated recombinant human TNFRSF25-His tagged (Acro #TN5-H52H3) as the ligand. During the association phase, biosensors were incubated with anti-TNFRSF25 antibodies at various concentrations for 600 seconds, followed by a 600 second dissociation phase.

[2] = target: T1, biotinylated recombinant human …; experiment: MSD competition; TNFRSF25 on plate, antibody titrated, then TL1A-rabbit Fc 0.4 µg/ml as competitor
Description: (§2) Figure 6: FIG. 6. […] Human TNFRSF25 was precoated on MSD assay plates followed by incubating with various concentrations of anti-TNFRSF25 antibodies.

[3] = target: T1, biotinylated recombinant human …; experiment: BLI/Octet; biotinylated TNFRSF25 on streptavidin sensor, mAb in solution; 1:1 Langmuir model
From the text: Provided herein are monoclonal and biparatopic antibodies that specifically target human TNFRSF25. The monoclonal antibodies were produced in an engineered CHOK1 cell-line by transfecting the cells with vectors genetically encoding the Heavy and Light chain antibody sequences followed by a single-step affinity-capture chromatography using FcXL resins. The final monoclonal antibody preparation was buffer exchanged into PBS, pH 7.4. Production of biparatopic antibodies followed a two-step process. In the first step of the process, the so called Knob-half (or Hole-half) antibody was produced by transfecting an engineered CHOK1 cell-line with vectors genetically encoding the Knob (or the Hole) Heavy chain and the corresponding Light chain sequences. The CHOK1-cell-harvest from the Knob-half antibody and Hole half-antibody was then purified by Protein A column-based chromatography. In the second step of the process, the two half-antibodies were reassembled into the desired biparatopic format by the use of a mild reduction step followed by quenching the reaction with buffer exchange into PBS, pH 7.4. To detect binding of the antibodies to human TNFRSF25, recombinant biotin-conjugated human TNFRSF25 protein was immobilized onto a streptavidin-coated MSD (Meso Scale Discovery) plate and allowed to bind the anti-TNFRSF25 mAbs in solution. Following a washing step, the bound antibodies were detected using a sulfo-tagged anti-human Fc antibody. The results of these MSD assays are shown in arbitrary units (au) on the y-axis of FIG. 1. To determine the binding affinity of the antibodies to recombinant human TNFRSF25 protein, recombinant biotin-conjugated human TNFRSF25 protein was immobilized onto a streptavidin-coated BLI sensor and allowed to bind the anti-TNFRSF25 mAbs in solution phase. The binding affinity (K_D) was calculated using the on-rates (Ka) and off-rates (Kd) of mAb binding to the target using a 1:1 Langmuir binding model in the ForteBio data analysis software.

[4] = target: T1, biotinylated recombinant human …; experiment: MSD competition; scFv supernatant serially diluted on TNFRSF25-coated plate, then TL1A added and the remaining TL1A detected
From the text: (FIG. 2A) TNFRSF25 was precoated on MSD assay plates followed by adding scFv supernatant at 2-fold serial-dilutions followed by detection of the myc tag present on the C-terminus of the scFv's. (FIG. 2B) scFv supernatant were serially diluted and added to an MSD-plate pre-coated with TNFRSF25.

[5] = target: FcγR1 (CD64), BLI reagent (UniProt P12314 16-288, limits assumed); experiment: BLI; antibody as analyte at 300 nM on FcγR1
[6] = target: T2, biotinylated recombinant human FcRn-His tagged protein (Acro #FCM-H82W7) (human, UniProt P55899 24-297; P61769 21-119, biotinylated); experiment: BLI/Octet; biotinylated human FcRn-His on streptavidin biosensor
T2 construct: also called hFcRn; neonatal Fc receptor
Description: (§3) Figure 5D: FIG. 5D. FcRn binding kinetics by anti-TNFRSF25 antibodies. BLI assay was performed using the Octet Red 96e instrument. Streptavidin biosensors were loaded with biotinylated recombinant human(h) FcRn-His tagged protein (Acro #FCM-H82W7) as the ligand. During the association phase, biosensors were incubated with anti-DR3 candidate antibodies at various concentrations for 600 seconds, followed by a 600-second dissociation phase.
as §1, with “the neonatal Fc receptor (FcRn) at neutral and acidic pH conditions,” for “human TNFRSF25,”, “FcRn-His” for “TNFRSF25-His”, “tagged protein” for “tagged”, “#FCM-H82W7)” for “#TN5-H52H3)”

[7] = target: T1, biotinylated recombinant human …; experiment: MSD competition (lower panel); antibody on TNFRSF25-coated plate, wash, then TL1A-rabbit Fc at 0.4 ug/ml, sulfo-tag anti-rabbit detection; raw MSD signal
Description: as §2

[8] = target: T2, biotinylated recombinant human FcRn-His …; experiment: BLI/Octet; biotinylated human FcRn-His on streptavidin biosensor; pH 7.4
Description: as §3
as §1, with “the neonatal Fc receptor (FcRn) at neutral and acidic pH conditions,” for “human TNFRSF25,”, “FcRn-His” for “TNFRSF25-His”, “tagged protein” for “tagged”, “#FCM-H82W7)” for “#TN5-H52H3)”

[9] = target: T2, biotinylated recombinant human FcRn-His …; experiment: BLI/Octet; biotinylated human FcRn-His on streptavidin biosensor; pH 6.0
Description: as §3
as §1, with “the neonatal Fc receptor (FcRn) at neutral and acidic pH conditions,” for “human TNFRSF25,”, “FcRn-His” for “TNFRSF25-His”, “tagged protein” for “tagged”, “#FCM-H82W7)” for “#TN5-H52H3)”

T2 sequence (P55899 24-297 limits assumed, chain 1 of 2): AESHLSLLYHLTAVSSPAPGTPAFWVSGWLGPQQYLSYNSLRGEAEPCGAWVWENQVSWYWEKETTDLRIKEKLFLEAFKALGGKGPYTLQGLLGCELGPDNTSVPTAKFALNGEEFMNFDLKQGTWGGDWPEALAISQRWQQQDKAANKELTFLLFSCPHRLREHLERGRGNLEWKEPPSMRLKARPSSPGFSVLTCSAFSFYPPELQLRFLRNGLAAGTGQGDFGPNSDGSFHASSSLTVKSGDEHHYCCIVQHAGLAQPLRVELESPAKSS
T2 sequence (P61769 21-119 limits assumed, chain 2 of 2): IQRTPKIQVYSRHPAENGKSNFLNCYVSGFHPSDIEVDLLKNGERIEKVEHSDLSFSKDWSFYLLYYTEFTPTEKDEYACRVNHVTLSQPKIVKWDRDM
FcγR1 (CD64), BLI reagent, sequence (P12314 16-288 limits assumed): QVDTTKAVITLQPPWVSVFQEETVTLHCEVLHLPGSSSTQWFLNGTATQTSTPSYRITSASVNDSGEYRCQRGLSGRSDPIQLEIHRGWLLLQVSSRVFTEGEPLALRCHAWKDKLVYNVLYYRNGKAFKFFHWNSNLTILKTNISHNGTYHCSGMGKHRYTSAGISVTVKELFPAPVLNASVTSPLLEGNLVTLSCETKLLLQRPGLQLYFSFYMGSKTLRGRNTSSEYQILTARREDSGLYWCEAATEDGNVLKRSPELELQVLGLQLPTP

B1: NH24 (whole antibody) (antibody, human IgG1, kappa, V domains shown)
VH: EVQLVESGGGSVQPGGSLRLSCAASGFTFSSYGMSWIRQAPGKGLEWISYISSSGGHTYYADSVKGRFTISRDNAKNSLYLQMNSLRAEDTAVYYCARGSGSFDYWGQGTLVTVSS
VL: DIVMTQSPSSLSASVGDRVTITCQASQDITNYLSWYQQKPGKAPKLLISDASNLETGIPSRFSGSGSGTDFTFTISSLQPEDIATYYCQQYDTLPITFGQGTRLEIKR
B1 was tested, and the “Response (RU)” value [1] was 0.73 RU, the koff [1] was 0.000742 s⁻¹ and the kon [1] was 1.26e+06 M⁻¹ s⁻¹. For the same binder, the IC50 [2] was 39.4 nM and the Kd [3] was 0.59 nM.

B2: NH46 (whole antibody) (antibody, human IgG1, kappa, V domains shown)
VH: QVQLVQSGSEVKKPGASVRVSCKVSGSTVKELSMHWVRQAPGKGLEWMGGYDPEDGESIFAQKFQGRVNMTEDRSTDTAYMELSSLRSEDTAVYYCATDLNWEDAFDVWGQGTMVTVSS
VL: QSVLTQPPSVSAAPGQKVTISCSGSGSNIGNYYVAWYQQFPGTAPKLLIYDNNKRPSGIPDRFSGSKSGTSATLGITGLQTGDEADYYCGTWDTSLTAGDIYVFGTGTKVTVLR
With B2 the “Response (RU)” value [1] was 1.06 RU, the koff [1] was 8.54e-05 s⁻¹ and the kon [1] was 452000 M⁻¹ s⁻¹. For the same binder, the IC50 [2] was 0.26 nM and the Kd [3] was 0.185 nM.

B3: NH24-47 (scFv, not shown: small tags and cut ends)
scFv: EVQLVESGGGSVQPGGSLRLSCAASGFTFSSYGMSWVRQAPGKGLEWISYISSSGGHTYYADSVKGRFTISRDNAKNSLYLQMNSLRAEDTAVYYCARYSGAFDRWGQGTPVTVSSGGRGSGGGGSGSGGSDIVMTQSPSSLSASVGDRVTITCQASQDISNYLSWYQQKPGKAPKLLISDASNLETGVPSRFSGSGSGTDFTFTISSLQPEDIATYYCQQYDNLPITFGQGTRLEIKR
notes: one of the four variants of group m25; used as unpurified E. coli supernatant; the sheet prints NH24-47; also called NH24-47 scFv
B3: binds [4].

B4: NH24-72 (scFv, not shown: small tags and cut ends)
scFv: EVQLVESGGGSVQPGGSLRLSCAASGFTFSSYGMNWIRQAPGKGLEWITYISSSGGHTYYADSVKGRFTISRDNAKNSLYLQMNSLRAEDTAVYYCARGQGPFEYWGQGTLVTVSSGGRGSGGGGSGSGGSDIVMTQSPSSLSASVGDRVTITCQASQDISNYLSWYQQKPGKAPKLLINDASNLETGVPSRFSGSGSGTDFTFTISSLQPEDIATYYCQQYDNLPITFGQGTRLEIKR
notes: one of the four variants of group m25; used as unpurified E. coli supernatant; the sheet prints NH24-72; also called NH24-72 scFv
B4: binds [4].

B5: SL-038 (antibody, human IgG1, kappa, L234A L235A, V domains shown)
VH: EVQLVESGGGLSQPGNSLQLSCEASGFTFSNHDMNWVRQAPGKGLEWVAYISSASGLISYADSVRGRFTISRDNAKNSLFLQMNNLKSEDTAMYYCARDPAYSGNYALDFWGQGTQVTVSS
VL: QPVLTQSPSASASLSGSVKLTCTLSSELSSYTIVWYQQQPDKAPKYVMYLKSDGSHGKGDGIPDRFSGSSSGAHRYLSVSNVQSEDDATYFCGAGYTLAGQYGWVFGSGTKVTVLR
For B5, the Kd [3] was 3.6 nM.

B6: SL-034 (antibody, human IgG1, kappa, L234A L235A, N297A)
heavy: QVQLQQSGPGLVKPSQTLSLTCAISGDSVSGYSAAWNWIRQSPSRGLEWLGRTYYRSKWYNDYAVSVKSRITINPDTSKNQFSLQLNSVTPEDTAVYYCARDYYGSESYYNRGYYYYGMDVWGQGTTVTVSSASTKGPSVFPLAPSSKSTSGGTAALGCLVKDYFPEPVTVSWNSGALTSGVHTFPAVLQSSGLYSLSSVVTVPSSSLGTQTYICNVNHKPSNTKVDKKVEPKSCDKTHTCPPCPAPEAAGGPSVFLFPPKPKDTLMISRTPEVTCVVVDVSHEDPEVKFNWYVDGVEVHNAKTKPREEQYASTYRVVSVLTVLHQDWLNGKEYKCKVSNKALPAPIEKTISKAKGQPREPQVYTLPPSREEMTKNQVSLTCLVKGFYPSDIAVEWESNGQPENNYKTTPPVLDSDGSFFLYSKLTVDKSRWQQGNVFSCSVMHEALHNHYTQKSLSLSPGK
light: AIQLTQSPSSLSASVGDRVTITCRASPGISSALAWYQQKPGKAPKLLMYDESSQESGVPSRFSGSGSGTDFTLTISSLQPEDFATYYCQQFNDYPLTFGGGTKVEIKRTVAAPSVFIFPPSDEQLKSGTASVVCLLNNFYPREAKVQWKVDNALQSGNSQESVTEQDSKDSTYSLSSTLTLSKADYEKHKVYACEVTHQGLSSPVTKSFNRGEC
notes: Same variable regions as SL-033; also called clone 034; L234A/L235A+N297A
B6 was tested, and the binding result [5] was “no binding (tested: 300 nM)” and the Kd [3] was less than 1 nM.

B7: SL-061_LS (antibody, human IgG1, kappa)
heavy: QVQLQQSGPGLVKPSQTLSLTCAISGDSVSGYSAAWNWIRQSPSRGLEWLGRTYYRSKWYNDYAVSVKSRITINPDTSKNQFSLQLNSVTPEDTAVYYCARDYYGSESYYNRGYYYYGMDVWGQGTTVTVSSASTKGPSVFPLAPSSKSTSGGTAALGCLVKDYFPEPVTVSWNSGALTSGVHTFPAVLQSSGLYSLSSVVTVPSSSLGTQTYICNVNHKPSNTKVDKKVEPKSCDKTHTCPPCPAPEAAGAPSVFLFPPKPKDTLMISRTPEVTCVVVDVSHEDPEVKFNWYVDGVEVHNAKTKPREEQYNSTYRVVSVLTVLHQDWLNGKEYKCKVSNKALPAPIEKTISKAKGQPREPQVYTLPPSREEMTKNQVSLTCLVKGFYPSDIAVEWESNGQPENNYKTTPPVLDSDGSFFLYSKLTVDKSRWQQGNVFSCSVLHEALHSHYTQKSLSLSPGK
light: AIQLTQSPSSLSASVGDRVTITCRASPGISSALAWYQQKPGKAPKLLMYDESSQESGVPSRFSGSGSGTDFTLTISSLQPEDFATYYCQQFNDYPLTFGGGTKVEIKRTVAAPSVFIFPPSDEQLKSGTASVVCLLNNFYPREAKVQWKVDNALQSGNSQESVTEQDSKDSTYSLSSTLTLSKADYEKHKVYACEVTHQGLSSPVTKSFNRGEC
notes: SL-061 with LS half-life extension changes in the Fc
With B7 the “fold improvement in binding affinity at pH 6.0 compared to pH 7.4” value [6] was roughly 10 fold, the “IC50 (read off the curve)” value [7] was roughly 0.2 nM and the Kd [8] was 6.78 nM. For the same binder, the koff [8] was 0.00144 s⁻¹, the kon [8] was 213000 M⁻¹ s⁻¹ and the Kd [9] was 0.879 nM. The koff [9] was 0.000181 s⁻¹ and the kon [9] was 206000 M⁻¹ s⁻¹.
